From patent publication US20090233993A1, “COMPOSITIONS AND METHODS FOR INHIBITING GSK3 ACTIVITY AND USES THEREOF” (Burnham Institute for Medical Research, priority 2008, published 2009)
Entries after “also recorded” stand apart in the source; their conditions may differ.

Key:
[1] = test system: FG01 transgenic mouse brain; assay: brain-specific FG01 transgenic mice, brain analysis; format: in vivo
From the text: Brain-specific FG01 transgenic mice were generated using a FG01 expression cassette. FG01 has an N-terminal Myc tag and is driven by the human Thy-1 promoter for neuron-specific expression. A SV40 polyA fragment is linked at the 3′ end for enhancing expression. Genotyping P5 primer was complementary to hThy1 sequence. Genotyping P3 primer was complementary to SV40/Poly A sequence. Reverse transcription primer RT-P5 was complementary to sequence on the 5′ side of the FG01 sequence. Hemizygous FG01 transgenic mice were crossed with homozygous triple transgenic (3×Tg) AD mice harboring mutations in human APP and tau genes on a presenilin 1 (PS1) mutant background (Oddo et al., 2003). Procedures involving animals and their care conformed to institutional guidelines (Animal Resources Department at Burnham Institute for Medical Research).
N-terminally Myc-tagged FG01 cDNA was cloned into pHZ04 construct between the human Thy-1 promoter and the SV40 polyA regions. Purified, linearized minigenes containing these sequences were microinjected into prenuclear embryos from superovulated C57B16 females. Two primers (Genotyping-P5: 5′-[…]-3′; SEQ ID NO:25), and Genotyping-P3: 5′-[…]-3′; SEQ ID NO:26) located within the human Thy-1 promoter and the SV40 regions, respectively, were used for genotyping. Brain tissues from confirmed transgenic mice and littermate controls were used for RNA extraction, reverse transcription and PCR with RT-P5 primer (5′-AGAATTTGGCTGTTTGG-3′; SEQ ID NO:27) located within the FG01 cDNA region paired with the Genotyping-P3 primer to verify Myc-FG01 expression. Alternatively, brain lysates were immunoprecipitated and analyzed by Western blot with the Myc antibody to verify Myc-FG01 expression. Procedures involving animals and their care conformed to institutional guidelines (Animal Resources Department at Burnham Institute for Medical Research).
To validate FG01 function in vivo, an FG01 transgenic mouse model specifically overexpressing Myc-tagged FG01 in the brain was generated. A transgenic expression cassette driven by the human Thy-1 promoter was microinjected into C57B16 mice and primers specifically amplifying exogenous Myc-FG01 were used to genotype transgenic mice. Genomic DNA extracted from mouse tail samples was genotyped by PCR using Genotyping-P5 and Genotyping-P3 primers located in the human Thy1 and SV40 polyA regions, respectively. […] Total RNA was extracted from the brain of an FG01 transgenic mouse (1) and of a littermate control (0), followed by RT-PCR with the RT-P5 primer located within the FG01-coding region and the Genotyping-P3 primer for detecting Myc-FG01 mRNA. Immunoprecipitation/Western blot confirmed that exogenous Myc-tagged FG01 protein was expressed in brain tissues of transgenic mice. Brain samples from FG01 transgenic (Tg) mice and littermate controls (Non-Tg) were analyzed for levels of phosphorylated/total CREB, phosphorylated/total GSK-3, and various tau forms by direct Western blot. Myc-FG01 was detected by immunoprecipitation-Western blot using the Myc antibody. Two mouse lines with similar exogenous FG01 expression levels were generated and the results obtained from the two lines (including their crossing with 3×Tg mice as described below) were similar. […] Brain lysates from FG01-Tg and Non-Tg mice were analyzed for GSK-3β activity. Results were normalized to those of Non-Tg samples.

[2] = test system: cAMP levels; assay: cAMP assay in mouse N2a cells; format: cell-based; details: FG01 overexpression
From the text: (§1) After 48-72 hrs, cells were lysed and cell lysates were subjected to immunoprecipitation with mouse IgG, rabbit IgG, myc antibody and adenylyl cyclase (AC) antibody (Santa Cruz Biotechnology, catalog number sc-1701), and then immunoblotted with antibodies against adenylyl cyclase (AC) and myc, respectively.
Commercial kits were used to assay in vitro activities of GSK-3β (Sigma) and PKA (Upstate). For GSK-3α activity, a commercial GSK-3β activity assay kit was used but the procedure to immunoprecititate GSK-3β was replaced with immunoprecipitation of GSK-3α using an anti-GSK-3α antibody (Cell Signaling). cAMP levels were assayed using a commercial kit (Biovision).

[3] = test system: PKC; assay: PKC activity in N2a cell lysates (32P peptide substrate); format: cell-based, mouse; details: FG01 overexpression in N2a cells
Protocol: N2a cells were transfected with pcDNA or FG01. After lysis, cell lysates containing […] of total proteins were incubated with synthesized PKC specific peptide substrate and ^32P-ATP. The ^32P labeled peptides were captured and the radioactivities were quantified by scintillation. The activities of PKC were represented by the normalized radioactivities of the labeled peptide substrates. n=4.

[4] = test system: GSK-3α/β; assay: phospho-GSK-3α (Ser21)/GSK-3β (Ser9) Western blot in mouse N2a/N2aSwe cells; format: cell-based
From the text: The accumulation of βCTF can also be attributed to decrease in γ-secretase cleavage. However, the Notch cleavage was not altered by overexpression of the recombinant FG01 (FIG. 9A). […] Thus, the activities of GSK-3α/β were examined with or without overexpressing FG01. First, the levels of phospho-GSK3α at Ser21 and GSK-3β at Ser9 (the inactivated forms of GSK3) were quantified using the specific antibodies.
The levels of the recombinant Notch (NotchΔE with Myc-tag) and the γ-secretase cleaved Notch fragment (NICD) were quantified by Western blotting using myc antibody and an antibody specific to processed Notch followed by densitometry. […] The results represent at least four independent experiments.
The levels of total GSK-3 were used as normalization factors.
Although the possibility that FG01 may modulate substrate specificity or accessibility to γ-secretase can not be excluded, it is equally possible that FG01 regulates other proteins/pathways functioning in APP processing and Aβ generation. […] Thus, the activities of GSK-3α/β were studied in the presence or absence of FG01 overexpression by examining levels of phospho-GSK-3α (Ser 21) and phospho-GSK-3β (Ser 9) (which represent inactivated forms of GSK-3) and by in vitro kinase assays.

[5] = test system: adenylate cyclases; assay: co-immunoprecipitation of FG01 with adenylate cyclases; format: binding, mouse; details: N2a cells overexpressing FG01
Protocol: as §1
Cells transfected with FG01 were lysed in either CHAPSO buffer (1% CHAPSO, 25 mM HEPES, pH7.4, 150 mM NaCl, and 2 mM EDTA supplemented with protease inhibitors) or in NP40 buffer (1% NP40 in phosphate buffered saline, supplemented with protease inhibitors). Lysates were immunoprecipitated using mouse IgG, rabbit IgG, and antibodies against Myc or adenylate cyclases and Trueblot™ IP beads (eBioscience), followed by Western blot with antibodies against Myc or adenylate cyclases.

B1: FG01: 141 amino acid transmembrane protein encoded by mouse retrogene fg01 (SEQ ID NO:2); expressed from transfected vector or transgene (protein)
chain: MQSQQRNIGYFNHLKADSRNITYSMTFSTKSSNQNFIIFLNEVQAAIIGHERCDLLPVLNELHPDALPDGRIWLFGLNPYFFQHNSLCMRGTPKRIGLQGCAQVGFLVLFVMPLLIPSVTAELPGSSETTTLAHLAGATGP
modifications: Myc and His6 tags; homo sapien
notes: expressed from transfected vector or transgene
levels of phosphorylated (inactive) GSK-3α/β in brain ([1]; FG01 transgenic vs littermate non-Tg mice): increased | CREB phosphorylation in brain ([1]; FG01 transgenic vs non-Tg mice): Increased | phosphorylation of endogenous mouse brain tau ([1]; FG01 transgenic vs non-Tg mice): decreased | GSK-3β activity in brain ([1]; FG01 transgenic vs non-Tg mice, brain lysates): reduced | behavioral phenotypes ([1]; observation of FG01 transgenic mice): no obvious aberrant behavioral phenotypes | increase of cAMP levels [2]: 38% | PKC activity [3]: increased | GSK-3α/β activity in the presence of lithium ([4]; FG01-transfected N2aSwe cells, 5 mM LiCl 4 hrs): could not further reduce | GSK-3 activities (inactivated phospho-GSK-3β) ([4]; FG01 overexpression, mouse N2a cells, Western blot): decreases | phospho-GSK-3α (Ser21) and phospho-GSK-3β (Ser9) levels (inactivated forms) ([4]; FG01 overexpression, mouse N2aSwe cells): more GSK-3α/β were phosphorylated; also recorded: more highly phosphorylated | interaction with adenylate cyclases [5]: interacts
